Experimental data taken from patent US20080138352A1 (INSTITUT PASTEUR, published 2008).

Biological target: the molecule itself
Experiment: size exclusion chromatography, Superdex 75, pH 6.0 (self-association, homodimer)

B1: recombinant Trypanosoma cruzi proline racemase TcPRACA (rTcPRACA), C-terminal His6-tagged (enzyme)
chain: GQEKLLFDQKYKIIKGEKKEKKKNQRANRREHQQKREIMRFKKSFTCIDMHTEGEAARIVTSGLPHIPGSNMAEKKAYLQENMDYLRRGIMLEPRGHDDMFGAFLFDPIEEGADLGMVFMDTGGYLNMCGHNSIAAVTAAVETGIVSVPAKATNVPVVLDTPAGLVRGTAHLQSGTESEVSNASIINVPSFLYQQDVVVVLPKPYGEVRVDIAFGGNFFAIVPAEQLGIDISVQNLSRLQEAGELLRTEINRSVKVQHPQLPHINTVDCVEIYGPPTNPEANYKNVVIFGNRQADRSPCGTGTSAKMATLYAKGQLRIGETFVYESILGSLFQGRVLGEERIPGVKVPVTKDAEEGMLVVTAEITGKAFIMGFNTMLFDPTDPFKNGFTLKQ
notes: the entry below describes its self-association into a homodimer; also called TcPA45; not shown: C-terminal six-histidine tag from pET28b(+)
binding result: binds
